Patent publication US20240409617A1

Legend:
[1] = biological target: B.1.1.7 Spike (SARS-CoV-2 spike protein, UK variant B.1.1.7) (SARS-CoV-2)
[2] = biological target: P.1 Spike (SARS-CoV-2 spike protein, Brazilian variant P.1) (SARS-CoV-2)
[3] = biological target: B.1.351 Spike (SARS-CoV-2 spike protein, South African variant B.1.351) (SARS-CoV-2)
[4] = biological target: D614G Spike (SARS-CoV-2 spike protein, D614G) (SARS-CoV-2)
[5] = biological target: B.1.1.7 Spike (SARS-CoV2)
[6] = biological target: B.1.351 Spike (SARS-CoV2)

Binder	Kd [1]	Response [1]	Kd [2]	Response [2]	Kd [3]	Response [3]	Kd [4]	Response [4]	Kd (P.1 Spike (SARS-CoV2))	Response (P.1 Spike (SARS-CoV2))	Kd [5]	Response [5]	Kd [6]	Response [6]
Ab 29 scFv-Fc (scFv, V domains shown) VH: QVQLQQSGPGLVKPSQTLSLTCAISGDSVSSYSDAWNWIRQSPSRGLEWLGRTYYRSKWYNDYAVSVKSRITINPDTSKNQFSLQLSSVTPEDTAVYYCAREIVATTPFRNYYYGMDVWGQGTTVTVSS VL: NFMLTQPHSVSESPGNTVTISCTRTSGSIASNYVQWYQQRPGSSPTTVIFQDKLRPSGVPDRFSGSIDSSSNSASLTISGLKTEDEADYYCQSYDSSSLWVFGGGTKLTVL	693 pM	0.118	8.45 pM	0.0232	371 pM	0.0418								
Ab 38 scFv-Fc (scFv, V domains shown) VH: QVTLKESGPTLVKPTQTLTLTCTFSGFSLTTSGVSVGWIRQPPGKALEWLALIHWDDDKRYSPSLRSRLTITRDTSKNQVVLTVTDMDPADTGTYYCASFIMTVYAEYFEDWGQGTLVTVSS VL: EIVLTQSPATLSVSPGERATLSCRASQSVSSNLAWYQQKPGQAPRLLMYDVSTRATGIPARFSGSGSGTEFSLTISSLQSEDFAVYYCQQRGAWPLTFGGGTKVEIK	1.47 pM	0.267	7.23 pM	0.228	7.62 pM	0.234	3.37 pM	0.328						
Ab_20 scFv-Fc (scFv, V domains shown) VH: QVQLVQSGGGSVKPGGSLRLSCAASGYRLSDYYMHWVRQAPGKGLEWVANIKQDGSEKYYVDSVKGRFTISRDNAKNSLYLQMNSLRAEDTAVYYCARVRGWSRGYFDYWGQGTLVTVSS VL: NFMLTQPHSVSESPGKTVTISCTGSSGSIASNYVQWYQQRPGSAPTTVIYEDNQRPSGVPDRFSGSIDSSSNSASLLISGLKTEDEADYYCQSYDSSNHWVFGGGTKLTVL									11.2 pM	0.17	2.6 pM	0.173	7.03 pM	0.213
Ab 31 scFv-Fc (scFv, V domains shown) VH: QVQLVQSGAEVKKPGSSVKVSCKASGGTFSSYTISWVRQAPGQGLEWMGGIIPILGTPNYAQKFQDRVAITADKSTSTAYMELSSLRSEDTAVYYCAVGSGWYSGFDYWGQGTLVTVSS VL: NFMLTQPHSVSESPGKTVTISCTGSSGSIASNYVQWYQQRPGSAPTTVIYEDSQRPSGVPDRFSGSIDSSSNSASLTISGLKTEDEADYYCQSFHNSNPVIFGGGTKLTVL	< 1 pM	0.135	8.97 pM	0.0789	< 1 pM	0.09								
Ab_28 scFv-Fc (scFv, V domains shown) VH: QVTLKESGPGLVNPSETLSLTCTVSGASISNSFWSWIRQSPGKGLEWIGYTSYSGNSIYNPSLKSRLTMSIDTSKNQLSLNLRSLTAADTAVYYCARREWIKGHFDYWGQGTLVTVSS VL: NFMLTQPHSVSESPGKTVTISCTGSGGSIASNYVQWYQQRPGSAPTTVIYEDNQRPSGVPDRFSGSIDSSSNSASLTISGLKTEDEADYYCQSYDSSNPVVFGGGTKLTVL									8.91 pM	0.102	1.49 pM	0.206	6.38 pM	0.12
Ab_25 scFv-Fc (scFv, V domains shown) VH: QVQLVQSGGGLVQPGGSLRLSCAASGFTFSSYWMSWVRQAPGKGLEWVANIKQDGSEKYYVDSVKGRFTISRDNAKNSLYLQMNSLRAEDTAVYYCARGFYYYGAFDIWGQGTTVTVSS VL: NFMLTQPHSVSESPGKTVTISCTGSSGSIASNYVQWYQQRPGSAPTTVIYEDNQRPSGVPDRFSGSIGSSSNSASLTISGLKTEDEADYYCQSYDSSNHWVFGGGTKLTVL									8.72 pM	0.0396	427 pM	0.0668	1.13 pM	0.0577
Ab_23 scFv-Fc (scFv, V domains shown) VH: EVQLVQSGAEVKKPGSSVKVSCRSSGGTFSTYGITWVRQAPGQGLEWMGRIIPSLGIPNYAQKFQGRVTITADTSVSTAWMELSSLESDDTAIYYCARENIDLATNDFWGQGTLVTVSS VL: QSALTQPPSASGSPGQSVTISCTGTSRDIGAYGYVSWYQQVPGKAPKLIIYEVRNRPSGVSSRFSGSKSGNTASLTISGLQAEDEADYYCSSYTSSSTLDVVFGGGTKLTVL									8.79 pM	0.123	9.11 pM	0.135	7.58 pM	0.189
Ab_27 scFv-Fc (scFv, V domains shown) VH: QVQLVQSGTEVKKPGASVKVSCKASGYSFTGSHLHWVRQAPGQGLEWMGWINPDSGVINYAQKFQGRVTLTRDTSISTAYMELSGLRSDDTAVYYCARDKAIGYVWALDYWGQGTLVTVSS VL: QSALTQPPSVSGSPGQSVTISCTGTSSDVGTYNRVSWYQQPPGKAPKLMIYEVSNRPSGVSNRFSGSKSGNTASLTISGLQAEDEADYYCSSYTRTFTYVFGTGTKVTVL									8.9 pM	0.0795	1.57 pM	0.281	1.25 pM	0.0974
Ab_19 scFv-Fc (scFv, V domains shown) VH: EVQLVESGAEVKKPGESLKISCKGSGYSFTSYWIGWVRQMPGKGLEWMGIIYPGDSDTRYSPSFQGQVTISADKSISTAYLQWSSLKASDTAMYYCARRGDLDAFDIWGQGTMVTVSS VL: QPGLTQPPAASGTPGQRVTVSCSGASANIGSNAVSWFKQFPETAPRLLISGNTHRPSGVPDRVSGSKSGTSASLTISGLQSDDEADYYCAAWDDSLNGYVFGSGTKVTVL									8.94 pM	0.204	10.3 pM	0.203	11.8 pM	0.258
Ab 30 scFv-Fc (scFv, V domains shown) VH: QVQLVQSGGGVVQPGKSLRLSCTASGFTFSDFPIHWVRQAPGKGLEWVGVISYDGNIKYYGDSVKGRFTISRDNAKNSLYLQMNSLRVEDTAVYYCARGGSSFDIWGQGTTVTVSS VL: SYELTQPPSVSEAPRQRVTISCSGSTSNIGNNAVSWYQHLPGKAPKLLIYYNERLPSGVSDRFSGSKSGTSASLAISGLRSEDEADYYCAAWDDSLSGHVVFGGGTKLTVL	< 1 pM	0.139	9.02 pM	0.0766	< 1 pM	0.0883								
Ab_26 scFv-Fc (scFv, V domains shown) VH: QVQLVQSGGGLVQPGRSLRLSCAASGFTFDDYAMHWVRQVPGKGLEWVSGIDWNSGVIGYADSVKGRFTISRDNAKNSLYLQMNSLRAEDTALYYCAKDAYSYGFLGAFDIWGQGTMVTVSS VL: LPVLTQPPSVSVAPGQTASITCGGDNIRTKGVHWYQQKPGQAPLLVIYYASDRPSGIPERFSGSSSGNTATLTISRVEAGDEADYYCQVWDSSSDLVVFGGGTTLTVL									10.3 pM	0.188	1.37 pM	0.336	1.78 pM	0.214
Ab_21 scFv-Fc (scFv, V domains shown) VH: QVQLVQSGGGLVQPGGSLRLSCATSGFTFDDYAMHWVRQAPGKGLEWVSGISWNSGSIGYVDSVKGRFTISRDNRNNKVYLQMNNLRAEDTAVYYCARDWWGSIDHWGLGTLVTVSS VL: QSALTQPRSVSGSPGQSVTISCTGTSSDVGGYDYVSWYQQHPGKAPKLIIYDVSKRPSGVPDRFSGSKSGNTASLTVSGLQAEDEADYYCSSYTSSSPVVFGGGTKLTVL									9.52 pM	0.103	1.47 pM	0.199	369 pM	0.148
